{"source": "paper PMC10215765", "origin": "cited, not measured here", "target": "Band 3 cytoplasmic N-terminal domain (Homo sapiens) (UniProt P02730)", "sequence (P02730 1-379)": "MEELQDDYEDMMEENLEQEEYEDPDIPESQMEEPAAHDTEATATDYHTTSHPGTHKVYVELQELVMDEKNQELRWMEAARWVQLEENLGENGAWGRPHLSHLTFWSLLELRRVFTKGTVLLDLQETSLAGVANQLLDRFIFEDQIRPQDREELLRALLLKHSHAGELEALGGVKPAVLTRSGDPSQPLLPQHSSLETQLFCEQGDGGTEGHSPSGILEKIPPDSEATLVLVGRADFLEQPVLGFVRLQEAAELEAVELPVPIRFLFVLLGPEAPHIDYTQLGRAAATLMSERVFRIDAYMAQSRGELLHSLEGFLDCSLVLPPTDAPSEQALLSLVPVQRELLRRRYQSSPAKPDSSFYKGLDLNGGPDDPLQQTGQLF", "note": "pKd: −log10 of the molar value."}
{"substance": "Peroxiredoxin 2 (from UniProt P32119)", "values": [{"measurement": "pKd", "value": 7.47}]}
